Reference: paper PMC5577252

Biological target: PSII-LHCII supercomplexes of sucrose gradient band α3 (α3G with glutaraldehyde) (pea (Pisum sativum L., endogenous in leaves)) (UniProt P06585)

- fast chlorophyll a fluorescence induction (OJIP), O–J curvature parameter C; control (sucrose gradient buffer with cations, paired): 0.35
- fast chlorophyll a fluorescence induction (OJIP), O–J curvature parameter C; no salts (salt-free buffer, unpaired): 0.14
- fast chlorophyll a fluorescence induction (OJIP), connectivity among PSII units parameter p; control (sucrose gradient buffer with cations, paired): 0.3
- fast chlorophyll a fluorescence induction (OJIP), connectivity among PSII units parameter p; no salts (salt-free buffer, unpaired): 0.13
- fast chlorophyll a fluorescence induction (OJIP), overall grouping probability p2G; control (sucrose gradient buffer with cations, paired): 0.21
- fast chlorophyll a fluorescence induction (OJIP), overall grouping probability p2G; no salts (salt-free buffer, unpaired): 0.15
- fast chlorophyll a fluorescence induction (OJIP), probability of connectivity between PSII units ω; control (sucrose gradient buffer with cations, paired): 0.2
- fast chlorophyll a fluorescence induction (OJIP), probability of connectivity between PSII units ω; no salts (salt-free buffer, unpaired): 0.06
Substance: PSII-LHCII supercomplexes of sucrose gradient band α3 (α3G with glutaraldehyde) (from UniProt P06585 1-344; P06006 1-353; P06004 15-473; P14226 82-329; P27520 38-265)
